Literature values, collected in article PMC4244080.

Biological target: insulin receptor (Homo sapiens) (UniProt P06213)
Test: radioligand binding

Sequence of insulin (P01308 90-110): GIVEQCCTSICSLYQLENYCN
Sequence of UniProt P06213 (P06213 763-1382): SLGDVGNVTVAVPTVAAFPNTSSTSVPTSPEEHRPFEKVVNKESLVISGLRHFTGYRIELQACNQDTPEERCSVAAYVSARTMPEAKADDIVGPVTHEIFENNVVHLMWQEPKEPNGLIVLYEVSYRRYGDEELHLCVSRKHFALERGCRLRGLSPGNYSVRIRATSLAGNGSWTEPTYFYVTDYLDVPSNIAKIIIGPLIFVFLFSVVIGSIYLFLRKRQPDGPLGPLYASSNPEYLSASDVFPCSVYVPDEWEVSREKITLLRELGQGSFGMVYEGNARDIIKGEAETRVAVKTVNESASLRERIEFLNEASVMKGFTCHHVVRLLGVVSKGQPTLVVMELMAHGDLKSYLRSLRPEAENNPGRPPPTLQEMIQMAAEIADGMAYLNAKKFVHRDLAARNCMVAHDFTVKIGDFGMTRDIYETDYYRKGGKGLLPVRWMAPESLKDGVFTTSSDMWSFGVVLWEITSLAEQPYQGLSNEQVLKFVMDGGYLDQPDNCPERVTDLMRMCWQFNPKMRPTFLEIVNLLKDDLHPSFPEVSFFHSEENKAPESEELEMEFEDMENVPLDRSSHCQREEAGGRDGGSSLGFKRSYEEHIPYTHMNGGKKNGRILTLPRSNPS

Kd: 0.3 nM
Substance: insulin (from UniProt P01308)
